Laboratory results as given in the supplement of paper PMC12667976.

B1: library; numbered along this chain (parent)
chain: MATDAALRRLLRLHRTEIAVAVDSAFPLLHALADHDVVPEDKFQETLHLKEKEGCPQAFHALLSWLLTQDSTAILDFWRVLFKDYNLERYGRLQPILDSFPKDVDLSQPRKGRKPPAVPKALVPPPRLPTKRKASEEARAAAPAALTPRGTASPGSQLKAKPPKKPESSAEQQRLPLGNGIQTMSASVQRAVAMSSGDVPGARGAVEGILIQQVFESGGSKKCIQVGGEFYTPSKFEDSGSGKNKARSSSGPKPLVRAKGAQGAAPGGGEARLGQQGSVPAPLALPSDPQLHQKNEDECAVCRDGGELICCDGCPRAFHLACLSPPLREIPSGTWRCSSCLQATVQEVQPRAEEPRPQEPPVETPLPPGLRSAGEEVRGPPGEPLAGMDTTLVYKHLPAPPSAAPLPGLDSSALHPLLCVGPEGQQNLAPGARCGVCGDGTDVLRCTHCAAAFHWRCHFPAGTSRPGTGLRCRSCSGDVTPAPVEGVLAPSPARLAPGPAKDDTASHEPALHRDDLESLLSEHTFDGILQWAIQSMARPAAPFPS

Variants of: B1
Assay: AIRE transcriptional activation functional score (insulin promoter-GFP; nonsense median 0, synonymous median 1) (normalised score); higher = higher AIRE activity (more reporter activation)
Conditions: with insulin promoter-GFP reporter in HEK293
Summary of the method: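 Integration of codon-optimized AIRE NNN-codon libraries (three regions) by Bxb1 recombinase was done in Flp-In T-REx HEK293 landing-pad cells containing an insulin core promoter-GFP reporter. Tile-sequencing covered the top 10% GFP cells and the unselected integrants, drawn from mCherry+, BFP− cells sorted at day 7 and grown 7 days. Functional score means the enrichment of a variant in select versus non-select, minus that of wild type. Variants with at least 10 counts per million in non-select were rescaled to nonsense median 0 and synonymous median 1, and the biological replicates were averaged.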

AIRE transcriptional activation functional score: each site, then its substitutions
R378: A 0.851, C 0.601, D 0.631, E 0.928, F 1.1, G 0.98, H 0.92, I 0.795, K 1.17, L 0.904, M 0.0153, N 1.28, P 0.932, Q 0.825, S 0.975, T 0.986, V 0.869, Y 0.657
G379: A 0.877, C 0.863, D 1.24, E 1, I 1.26, K 1.19, L 1.41, N 1.23, P 0.992, R 0.719, S 1.37, T 0.911, V 0.691, W 1.23, Y 1.47
P380: A 0.626, C 0.499, D 0.476, E 0.934, F 0.369, G 0.801, H 0.534, I 1.14, K 0.944, L 0.882, M 1.34, N 1.52, Q 1.16, R 0.936, S 0.998, T 1.45, V 0.912, W 1.39, Y 1.42
P381: A 0.912, C 0.894, D 0.696, E 1.26, F 1.15, G 1.11, H 1.03, I 0.705, K 1.04, L 1.13, M 1.06, N 1.07, Q 1.35, R 1.25, S 0.87, T 0.929, V 1.15, W 0.42, Y 1.39
G382: A 0.906, C 0.802, D 0.898, E 1.19, F 1.11, H 1.29, I 0.702, K 0.449, L 0.669, N 0.95, P 0.74, Q 1.24, R 1.03, S 0.979, T 0.841, V 1.22, W 1.38, Y 1.13
E383: A 1.32, C 1.18, D 0.97, F 1.58, G 1.09, H 0.859, I 0.922, K 0.473, L 1.22, M 0.564, P 0.887, Q 0.74, R 1.05, S 1.01, T 1.49, V 1.13, W 0.951, Y 1.27
P384: A 0.99, E 1.39, G 1.62, H 1.05, I 0.998, K 0.962, L 1.14, M 1.35, N 0.179, Q 1.01, R 1.19, S 0.379, T 1.17, V 0.849, W 1.61
L385: A 0.341, C 1.42, D -0.182, E 1.15, F 0.899, G 1, H 1.13, I 0.603, K 0.616, N 0.689, P 0.451, Q 1.24, R 0.699, S 0.77, T 0.874, V 0.955, W 1.56, Y 1.34
A386: C 0.57, D 0.793, E 1.21, F 1.74, G 0.732, H 1.44, I 0.514, K 1.1, L 1.36, M 1.53, N 0.757, P 0.921, Q 0.654, R 1.1, S 0.756, T 1.02, V 0.968, W 1.47, Y 1.55
G387: A 1.19, C 0.799, F 1.52, I 1.59, K 0.344, L 1.35, P 0.291, R 1.1, S 0.84, T 1.22, V 1.5, W 1.52, Y 1.72
M388: A 0.871, C 0.979, D 0.8, E 0.756, F 1.15, G 0.832, H 1.2, I 0.924, K 1.05, L 1.17, N 0.557, P 1.14, Q 0.232, R 0.983, S 0.824, T 0.897, V 1.49, W 1.46, Y -0.0355
D389: A 1.04, C 0.869, E 0.728, F 0.472, G 0.913, H 1.2, I -0.197, K 0.278, L 0.218, M -0.143, N 1.22, P 0.951, Q -0.15, R 0.387, S 1.24, T 1.23, V 0.292, W 0.0908, Y 0.964
T390: A 0.741, C 0.472, D 0.833, E -0.73, F 1.29, G 1.17, I 0.876, K 1.1, L 1.23, N 1.09, P 0.842, Q 0.868, R 1.02, S 0.817, V 1.25, W 1.51, Y 1.62
T391: A 1.09, C 0.542, D 0.889, E 0.539, F 1.41, G 0.941, H 1.17, I 1.29, K 0.54, L 1.06, M 1.02, P 0.882, Q 0.725, R 1.15, S 0.957, V 1.16, W 1.58, Y 1.45
L392: A 0.196, E 0.303, F 1.15, G 0.912, H 0.636, I 1.7, K 1.14, M 0.734, N 0.909, P 0.582, Q 1.18, R 1.06, S 1.43, T 0.53, V 1.36, W 1.22
V393: A 1.04, C 1.11, D 0.48, E 0.991, G 1.28, L 1.2, M 0.98, N 1.09, P 0.254, Q -0.242, R 0.0991, S 0.746, T 1.14, W 1.67, Y 0.561
Y394: A 0.692, C 0.576, D 0.711, E 0.49, F 0.973, G 0.882, H 0.428, I 0.972, K 0.301, L 1.07, M 1.13, N 0.966, P 1.43, Q -0.333, R 0.595, S 0.848, T 0.126, V 0.926, W 0.755
K395: A 0.786, C 0.49, D 0.353, E 0.701, F 0.828, H 0.628, I 0.422, L 1.38, M 2.5, N 0.081, Q 1.35, R -0.166, S 0.558, T 0.901, V 1.34, W 0.234, Y 1.47
H396: A 0.663, C 1.33, D 0.156, E -0.185, F 1.15, G 0.899, I 1.17, K 1.61, L 1.69, N 1.09, P 1.02, Q 1.12, R 1.03, S 0.606, T 0.549, V 1.25, W 1.28, Y 1.44
L397: A 0.914, C 0.827, D 0.808, E 0.622
